{"source": "the nanobody polyreactivity screen of Harvey et al. (2022)", "data": [{"assay": "yeast display, Sf9 membrane polyspecificity reagent, FACS + sequencing; frameworks hold sequencing errors", "how_it_was_run": "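Nanobodies came from a synthetic yeast display library in Saccharomyces cerevisiae BJ5465, induced with galactose for 36–48 hours and stained for 1 hour at 4 °C with 10% biotinylated, detergent-solubilized Sf9 membrane reagent. Cells were enriched on streptavidin microbeads and then FACS-sorted, with low and high (top ~1%) gates set on anti-HA fluorescence for expression and streptavidin fluorescence for reagent binding. Each polyreactivity label reflects the gate a clone came from. Genes were amplified by colony PCR, sequenced by MiSeq 2 × 250 and filtered by CDR length.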", "values": [{"sequence": "QVQLVESGGGLVQAGGSLRLSCAASGNIYPYYAIGWYRQAPGKERELVAAINAGGGNTYYADSVKGRFTISRDNAKNTVYLQMNSLKPEDTAVYYCAARRVRIYYGSVVWYKYDYWGQGTQVTVSS", "polyreactivity (PSR sort gate)": "high polyreactivity"}, {"sequence": "QVQLVESGGGLVQAGGSLRLSCAASGNMFYANAMGWYRQAPGKERELVAAISGSVCSTYADSVKGRFTISRDNAKNTVYLQMNSLKPEDTAVYYCNASVLDAIFYKSVGYDYWGQGTQVTVSS", "polyreactivity (PSR sort gate)": "low polyreactivity"}, {"sequence": "QVQLVESGGGLVQAGGSLRLSCAASGNNFLLYAMVWYRQAPGKEREFVAAITWIAGSTYYADSVKGRFTISRDNAKNTVYLQMNSLKPEDTAVYYCAADSYWYDMDYWGQGTQVTVSS", "polyreactivity (PSR sort gate)": "high polyreactivity"}, {"sequence": "QVQLVESGGGLVQAGGSLRLSCAASGNNFRRYAMGWSRQAPGKERELVAAITWRGGNTYYADSVKGRFTISRDIAKNTVYLQRNSLKPEDTAVYYCNRVYRQRLGRDYWGQGTQVTVSS", "polyreactivity (PSR sort gate)": "high polyreactivity"}, {"sequence": "QVQLVESGGGLVQAGGSLRLSCAASGNTFAFNAMGWYRQATGKEREFVAAISYSGVSTYYADSVKGRFTISRDNAKNTVYLQMNSLKPEDTAVYYCAARYGWYKYWYDYWGQGTQVTVSS", "polyreactivity (PSR sort gate)": "high polyreactivity"}, {"sequence": "QVQLVESGGGLVQAGGSLRLSCAASGNTFAYYAMGWYRQAPGKERELVAAISGSGGRTYYADSVKGRFTISRDNAKNTVYFQMNILKPEDTAVYYCNARPAGGLGYGYWGQGTQVTVSS", "polyreactivity (PSR sort gate)": "high polyreactivity"}, {"sequence": "QVQLVESGGGLVQAGGSLRLSCAASGNTFDSYVMGWYRQAPGKERELVAAISYRGGSTYYADSVKGRFTISRDNAKNTVYLQMNSLKPEDSAVYFCAADYFYYVYSYWYDSWGQGTQVTVSS", "polyreactivity (PSR sort gate)": "high polyreactivity"}, {"sequence": "QVQLVESGGGLVQAGGSLRLSCAASGNTFGAYAMGWYRQAPGKERELVAAITWSGGRTYYADSVKGRFTISRDNAKNTVYLQMNSLKPEDTAVYYCAADYGYYRGGVRFGYWGQGTQVTVSS", "polyreactivity (PSR sort gate)": "high polyreactivity"}, {"sequence": "QVQLVESGGGLVQAGGSLRLSCAASGNTFGENAMGWYRQAPGKERELVAAISNGGTTNYADSVKGRFTISRDNAKNTVYLQMNSLKPEDTAVYYCNAKFGISQPGHSGLLKMDYWGQGTQVTVSS", "polyreactivity (PSR sort gate)": "low polyreactivity"}, {"sequence": "QVQLVESGGGLVQAGGSLRLSCAASGNTFGENAMGWYRQAPWKERELVAAISNGGTTNYADSVKGRFTISRDNAKNTVYLQMNSLKPEDTAVYYSNAKFGISQPGHSGLLKMDYWGQGTQVTVSS", "polyreactivity (PSR sort gate)": "low polyreactivity"}, {"sequence": "QVQLVESGGGLVQAGGSLRLSCAASGNTFGFNTMGWYRQAPGKERELVAAISKSGTRTFYADSVKGRFTISRDNAKNTVYLQMNSLKPEDTAVYYCAAVAKGGNWPAQGGGHDYWGQGTQVTVSS", "polyreactivity (PSR sort gate)": "high polyreactivity"}, {"sequence": "QVQLVESGGGLVQAGGSLRLSCAASGNTFGIYAMGWYRQAPGKERELVAAISSGTSTNYADSVKGRFTISRDNAKNTVYLQMNSMKPEDTAVYYCNADDQYQDVREDYWGQGTQVTVSS", "polyreactivity (PSR sort gate)": "low polyreactivity"}, {"sequence": "QVQLVESGGGLVQAGGSLRLSCAASGNTFGRNAMGWYIQAPGKERELVAAIDIGADTNYADSVKGRFTISRDNAKNTVYLQMNSLKPEDTAVYYCAASYRYVRWKWGYNYWGQGTQVTVSS", "polyreactivity (PSR sort gate)": "high polyreactivity"}, {"sequence": "QVQLVESGGGLVQAGGSLRLSCAASGNTFGWNAMGWSRQAPGKERELVAAIDIGADTNYADSVKGRFTISRDNAKNTVYLQMNSLKPEDTAVYYCAASYRYVRWKWGYNYWGQGTQVTVSS", "polyreactivity (PSR sort gate)": "high polyreactivity"}, {"sequence": "QVQLVESGGGLVQAGGSLRLSCAASGNTFGYYAMGWYRQAPGKERELVAAINFGGDTSYADSVKGRFTISRDNAKNTVYLQMNSLKPEDTAVYYCAADGSYWIYADGDYWGQGTQVTVSS", "polyreactivity (PSR sort gate)": "low polyreactivity"}, {"sequence": "QVQLVESGGGLVQAGGSLRLSCAASGNTFHTNAMGWYRQAPGKERELVAAITGGGSTYYADSVKGRFTISRDNAKNTVYLQMNSLKPEDTAVYYCNTDVPYGLDVSDTIDYYYWGQGTQVTVSS", "polyreactivity (PSR sort gate)": "low polyreactivity"}, {"sequence": "QVQLVESGGGLVQAGGSLRLSCAASGNTFKYYAMGWYRQAPGKERELVAAITWNGARTYYADSVKGRFTISRDNAKNTVYLQMNSLKPEDTAVYYCNARQGYRFDYWGQGTQVTVSS", "polyreactivity (PSR sort gate)": "high polyreactivity"}, {"sequence": "QVQLVESGGGLVQAGGSLRLSCAASGNTFNAFNAMGWYRQAPGKERELVAAISRRGGSTYYADSVKGRFTISRDNAKNTVYLQMNSLKPEDTAVYYGAAYYSRSKYDYWGQGTQVTVSS", "polyreactivity (PSR sort gate)": "high polyreactivity"}, {"sequence": "QVQLVESGGGLVQAGGSLRLSCAASGNTFPFNAMGWYRQAPGKERELVAAISRGGSTYYADSVKGRFTISRDNAKNTVYLQMNSLKPDDTAVYYCAAGYRRQGYGGYDYWGQGTQVTVSS", "polyreactivity (PSR sort gate)": "high polyreactivity"}, {"sequence": "QVQLVESGGGLVQAGGSLRLSCAASGNTFPVYAMGWYRQASGKERELVATITSGGSTNYADSVKGRFTISRDNAKNTVYLQMNSLKPEDTAVYDCARRAVYAKRRYDYWGQGTQVTVSS", "polyreactivity (PSR sort gate)": "low polyreactivity"}, {"sequence": "QVQLVESGGGLVQAGGSLRLSCAASGNTFQYYALGWYRQAPGKERELVAAITTGGSKNFADSVKGRFTISRDNAKNTVYLQMNSLKPEDTAVYYCAARGGVSKRISDYWGQGTQVTVSS", "polyreactivity (PSR sort gate)": "low polyreactivity"}, {"sequence": "QVQLVESGGGLVQAGGSLRLSCAASGNTFRDYAMGWYRQAPGKERELVAAITSSGARTYYADSVKGRFTISRDNAKNTVYLQMNSLKPEDTAVYYCAADWSGYYTYDYWGQGTQVTVSS", "polyreactivity (PSR sort gate)": "low polyreactivity"}, {"sequence": "QVQLVESGGGLVQAGGSLRLSCAASGNTFRGYAMGWSRQAPGKEMELVAAITSGGRTYYADSVKGRFTISRDNAKNTVYLQMNSLKPEDTAVYYCNARQFAGDEWGQGTLVTVSS", "polyreactivity (PSR sort gate)": "high polyreactivity"}, {"sequence": "QVQLVESGGGLVQAGGSLRLSCAASGNTFRSYVMGWYRQAPGKERELVADISSGDGTNYADSVKGRFTISRDNAKNTVYLQMNSLKPEDTAVYYCAKDVYNFRTTHSYFTGYDSWGQGTQVTVSS", "polyreactivity (PSR sort gate)": "low polyreactivity"}, {"sequence": "QVQLVESGGGLVQAGGSLRLSCAASGNTFRYYAMGWYRQAPGKERELVATITSGGRTYYADSVKGRFTISRDNAKNTVYLQMNSLKPEDTAVYYCAAVGLDYFVGEYDYWGQGTQLTVSS", "polyreactivity (PSR sort gate)": "low polyreactivity"}, {"sequence": "QVQLVESGGGLVQAGGSLRLSCAASGNTFSAYAMGWYRQAPGKERELVAAISSRGGSTYYADSVKGRFTISRDNAKNTVYLQMNSLKPEDTAVYYCAAGWFGTSYRYRSSFDYWGQGTQVTVSS", "polyreactivity (PSR sort gate)": "high polyreactivity"}, {"sequence": "QVQLVESGGGLVQAGGSLRLSCAASGNTFSDYSMGWYRQAPGNERELVAAITISGGSTYYADSVKGRFTISRDNAKNTVYLQMNSLKPEDTAVYYCAADVWYILYDYWGQGTQVTVSS", "polyreactivity (PSR sort gate)": "low polyreactivity"}, {"sequence": "QVQLVESGGGLVQAGGSLRLSCAASGNTFSGNAMGWYRQAPGKERELVAAISGSGASTYYADSVKGRFTISRDNAKNTVYLQMNSLKPEDTAVYYCAADKPGIFSRFDYWGQGTQVTVSS", "polyreactivity (PSR sort gate)": "low polyreactivity"}, {"sequence": "QVQLVESGGGLVQAGGSLRLSCAASGNTFSLYAMGWYRQAPGKERELVAAITWITGSTDYADSVKGRFTISRDNAKNTVYLQMNSLKPEDTAVYYCAADGDFSWFYSYETGWIEYDYWGQGTQVTVSS", "polyreactivity (PSR sort gate)": "low polyreactivity"}, {"sequence": "QVQLVESGGGLVQAGGSLRLSCAASGNTFSSNAMGWYRQAPGKERELVAGITKSGGRTYYADSVKGRFTISRDNAKNTVYLQMNSLKPEDTAVYYCNRRAGPYSIPYYYWGQGTQVTVSS", "polyreactivity (PSR sort gate)": "high polyreactivity"}, {"sequence": "QVQLVESGGGLVQAGGSLRLSCAASGNTFSTYGMGWYRQAPGKERELVAGITSDGRTNYADSVKGRFTISRDNAKNTVYLQMNSMKPEVTAVYYCAAEWASRFAVFWAYPKYDYWGQGTQVTVSS", "polyreactivity (PSR sort gate)": "low polyreactivity"}, {"sequence": "QVQLVESGGGLVQAGGSLRLSCAASGNTFSWYAMGWYRQAPWKERELVAVITSGGSTNYADSVKGRFTISRDNAKNTVYLQMNSLKTEDTAVYYFAADSYGGSKYDYWGQGTQVTVSS", "polyreactivity (PSR sort gate)": "low polyreactivity"}, {"sequence": "QVQLVESGGGLVQAGGSLRLSCAASGNTFTGYAMGWYREAPGKERELVAAITRSGRTYYADSVKGRFTISRDNAKNTVYLQMTSLKPEDTAVYYCAADRRYVKYYYSGQGTQVTVSS", "polyreactivity (PSR sort gate)": "high polyreactivity"}, {"sequence": "QVQLVESGGGLVQAGGSLRLSCAASGNTFTWYTMGWYRQAPGKERELVAVITSDGSTYYADSVKGRFTISRDNAKNTVYLQMNSLKPEDTAVYYCNALSADWYPEEDYWGQGTQVTVSS", "polyreactivity (PSR sort gate)": "low polyreactivity"}, {"sequence": "QVQLVESGGGLVQAGGSLRLSCAASGNTFVKYVIGWYRQAPGKEREYVAAITVRGNTYYADSVKGRFTISRDNAKNTVYLQMNSLKPEDTAVYYCAARIYYLYKDRRLGYYWGQGTQVTVSS", "polyreactivity (PSR sort gate)": "high polyreactivity"}, {"sequence": "QVQLVESGGGLVQAGGSLRLSCAASGNTFVYYAMGWYRQAPGKERELVAGISRRSGSTYYADSVKGRFTISRDNAKNTVYLQMNSLKPEDTAVYYCAKGRTYLDADDYWGQGTQVTVSS", "polyreactivity (PSR sort gate)": "low polyreactivity"}, {"sequence": "QVQLVESGGGLVQAGGSLRLSCAASGNTFVYYNMGWYRQAPGKERELVAAINWSGGSTYYADSVKGRFTISRDNAKNTVYLQMNSLKPEDTAVYYCAADTSYYPYEYWGQGTQVTVSS", "polyreactivity (PSR sort gate)": "high polyreactivity"}, {"sequence": "QVQLVESGGGLVQAGGSLRLSCAASGNTFWRYAMGWYRQAPGKERELVAAITYTSGSTYYADSVKGRFTISRDNAKNTVYLQMNSLKPEDTAVYYCAAESVYGSGYVFRYYYWGQGTQVSVSS", "polyreactivity (PSR sort gate)": "high polyreactivity"}, {"sequence": "QVQLVESGGGLVQAGGSLRLSCAASGNTFYDYGMGWYRQAPGKERELVAGIDGSSTYYADSVKGRFTISRDNAKNTVYLQMNSLKPEDTAVYYCAAYVGSYVSYRAYPRIYYYWGQGTQVTLSS", "polyreactivity (PSR sort gate)": "low polyreactivity"}, {"sequence": "QVQLVESGGGLVQAGGSLRLSCAASGNTFYGYAIGWYRQAPGKERELVASITLSGDSTYYADSVKGRFTISRDNAKNTVYLQMNSLKPEDTAVYYCAGVYTYPLGYYHYTYDYWGQGTQVTVSS", "polyreactivity (PSR sort gate)": "low polyreactivity"}, {"sequence": "QVQLVESGGGLVQAGGSLRLSCAASGNTFYGYAMGWYRQAPGKERDLVATITGSGGDTYYADSVKGRFTISRDNAKNTVYLKMNSLKPEDTAVYYCNAVEYYGGYPGTQYYYLAYNYWGQGTQVTVSS", "polyreactivity (PSR sort gate)": "low polyreactivity"}, {"sequence": "QVQLVESGGGLVQAGGSLRLSCAASGNTFYGYAMGWYRQAPGKERELVASITLSGDSTYYADSVKGRFTISRDNAKNTVYLQMNSLKPADTAVYYCAGVYTYPLGYYHYTYDYWGQGTQVTVSS", "polyreactivity (PSR sort gate)": "low polyreactivity"}, {"sequence": "QVQLVESGGGLVQAGGSLRLSCAASGNTFYGYSMGWYRQAPGKERELVASITLSGDSTYYADSVKGRFTISRDNAKNTVYLQMNSLKPEDTAVYYCARRSRESYEYDYWGQGTQVTVSS", "polyreactivity (PSR sort gate)": "low polyreactivity"}]}]}
